Source: the domain aggregation screens of Martell et al. (2025)

Assay: soluble fraction after stress (log2 fold change); higher = more stays soluble; pooled small domains, quantitative proteomics
Conditions: stress: 50 degC
Procedure, shortened: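 Quantitative proteomics served as the high-throughput read-out for pooled custom libraries of small protein domains. Each was stressed at 50°C. Aggregation propensity is expressed as the base-two log fold change in soluble protein after stress. A higher value means a larger share of the protein remains in solution.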

Sequence	soluble fraction (log2)
HMYNTDAMGVRIGELRRAKGLTQEAFAKTLGISAQAVSKWETGLGFPDISLLPMIAETLGTKIETLFGAE	-0.0826
HMAGTPAVVKWFNPTKGFGFVTPREAGSDALLHASVLAKQGKRWLQEGTVVEVVLEEGPKGLVVSEVLTIE	-0.457
HMSVIETLLSDREREVLTHLVNGYDAKRIAEITGISTLTVRKHIANIYTKLHVNSKAQVISMAHKNKWF	-0.657
HMVREVSYDQFLHFVEAKQVGMVYQDGESLMFTLKEDVEKEWGVTAYKTGLWPDANLTDRLLDAGVVFS	-0.715
HMNGSVLVTGGSVWIRAGASKETDGLGIVHKGDVLKRSGSDASGWRGVVYEGQNAFISAKYSSI	-0.916
HMDETELLLQKAIATLPDKQRVVFNLKYFDEMKYEEMSELLETSVGALKASYHLAVKKIEQFFHDA	-0.643
HMDVSEITTIKWIIKETKLGINEKILIYVNSKNFTVETLMEGFEIMSKYLVENVSSDKIVYIKN	-0.179
HMDKQEKIHKKKIIILEALKRLLQNDVYSRITVQAVADEAGFSKGGLLHYFPTKEEMYIEFMEY	-0.0218
HMNDAEEKAEAIEGVKNFMANMEKTDIDFKSKESVLLEQVEEIRKNYPVAQWPVIVKQLYNNIGRL	0.159
HMGHASPGNREALQFALERHQARAAEFAEKAGLSIANASTKFKQLWEQGFLMRNESVADSGGVEFLYQR	-0.0221
HMRTTTGSEGMIGSIGKAKTDLAPDGKIFIHGELWDATSSSPVSAGQKIEVTQIEGLKLHVKPVL	0.268
HMSALTELPVKTVNGKKYHYYVVKQHETVYALSKRFGITPEQLIKYNPSAEDGLQIDQELLFPATEI	0.161
HMRILGIDPGTRITGYGIIDIEGNRLRHVDNGIIKTRSSDALPLRLKVIYDGLTAVLKQYSPQAV	0.0465
HMAVPLVRGTVTSSVGTVLLLSVGERDFFLSEGEEKDGVLLQSLSEKSAVVVVSGRAYTLSL	-0.408
HMTPSTVQVHVAGAVKNPGVYVLLENARNIDAITAAGGATSEADLERINLSEFIRDGQRVYVPYKGDPI	0.269
HMENPVPVIITDQNFQPLLWKNVGVPTDTIFHELSPENQKKLENLMKTMVQMPLTDDGRISGYAYYSK	-0.195
HMRVGADLTQRERELLALMAQGMSNQEIAKRLEIAVPTVKFHITNILDKLQVGNRTEAVIAALEHKLVP	-0.58
HMNAYEVLIPNIYIGQRVDQTLASLFPQFSRSRLQNWLARGNLLIDGEIIKPKTKVLGGEQIIILDT	-1.83
HMQELVPGKVFEGTVTEMKNGQVTLGLSDGKTISARMEQGVSLAKGQPMLFEVKSNTGEQIAIRPVVL	0.169

Sequence	soluble fraction (log2)
HMDYGTATASAILYLEKIDPENPYLLLAKDTITTNPKMSVNFALKGIIESKKGEKEENLNKALEIMSSL	0.049
HMAGNNTATKEIAELLIAKGADVNAMNLSPPGREIGGMTPLDMAILGNRNEIADLLRKHGGRTQKELKAE	0.356
HMGGKAITGGEGEIIIRADKAETVAIYGIDGRLVHRVSTEAGDTKRVSVPAGIYIVKGAKVVV	≥ 0.62
HMNLAISAYQQLKSDIIRGVYAPGEKLLMSRLKVRYGLGIGPMREALSQLVSEHLVTAASQRGYRVAGM	-1.64
HMADVSPEAQHKMVEAFAQFGVTKEHIEQRIQRRLDAIQPAQMVTLKRIFASLRDGMSTPAEWFE	-0.227
HMTVGEKIQKYRKDLDLSQEELGQKLLVSRQTISLWEKDQTVPTIDNLIRLREIFGVSVDEILGF	-0.409
HMIIIMKPNASEEAVRKVTHIIESKGLQVHLSKGSQVTIVGVVGDKTRLQGSNIEISEGVDKVVAVT	-0.0139
HMYGSLGEYELAAVQWIYGKGKITTRELSSLIGKGLTLSSKTLRGLAAKGILEWHGNSKNDPSQFYSLP	-2.39
HMDNIKRGEMFYISRGGASYSGSEQHSDRPAVVVSNDKNNENSNVVEVVYMTTQPKTDLPTHVTVR	0.0894
HMAFDYETYQLTSREFSIIELVADGRSNREIAEALYLGEGTVRNYLSSILEKLELRDRTQLAVFFYQHL	-2.3
HMAVRLADMAAEKIRKMIIENKFDAGEPLSEMRLAEMFNVSRTPIREAIAILEQEGLLTTVHGKGAFIS	-0.367
HMYVKKSSFVKKSLNNYEFKITDNTNDLLIFYKGMLPDLFREEQGIVVEGLIDKNNNIVASKV	-0.0872
HMKLIPLTDMRGQLRSGAPLPWGVRDAQGNLLLGKGHVIASDDMLEALLARGMFVDAEEAKAARG	0.00271
HMKDLIGEAKAKELALGHAKLSASDVTFIHVELDWENGRRVYDVEFYSGAKEYDYEIDAKTGEIVSFDY	-1.27
HMENQFNDWSLTPSEKEVALFMLKGLSTQEIAAARNTKEKTVRQQASAVYAKSQLDGRYALAAWFFEDI	-0.567
HMTEQLTLVGKTGVTTTDLRPSGKVEVDGKRYDAVADNGAFISKGAHIKVVRYVTGQVYVVPTD	0.0883
HMNSKSFIFHIEDEEGIRLDVFLADNLPDVSRSYVQKLIDEEHVKVNGQSAKSRLKTVSGMEITVDVPAPK	-0.321
HMTPIELIEKTIELIENERKVQKLQQKELALKADIPFPTYKDFIYKKRASLENILKLFIALRLF	-0.342
HMYPQLIGFKVIDEDKGEVGVVKEVSESMHQILLTVMKGKKEILIPLAEEFITKVNRHKKELFMVLPDG	0.502
